Article PMC7738837, “Synthesis and evaluation of ^68Ga-labeled dimeric cNGR peptide for PET imaging of CD13 expression with ovarian cancer xenograft” (Journal of Cancer, 2021)
Read-outs that look alike come from different tables or passages of the source. Positions of bridges follow the written chain, without caps; N, C: chain ends. Non-standard residues stand in square brackets, D forms with d. Residues, ends and D or L forms follow the SMILES beside them. Chains are numbered I, II in the order given. *: point of attachment. DOTA = O=C(O)CN1CCN(CC(=O)O)CCN(CC(=O)*)CCN(CC(=O)O)CC1; PEG4 = NCCOCCOCCOCCOCCC(=O)O

Tests used:
SKOV3 cells = experiment: In vitro cell binding/uptake assay, SKOV3 cells; assay type: cell-based, human; conditions: 37 KBq per well, 1×10^6 cells/well, 37°C, time points 5 min to 2 h, gamma counter, mean ± SD
[1] = MicroPET imaging and blocking, ES2 tumor-bearing nude mice; conditions: female, BALB/c nude, mouse, in vivo, iv, total radioactivity
Protocol: (§1) The human OVCA ES2 and SKOV3 cells were obtained from Nanjing Keygen Biotech Co., Ltd. (Nanjing, China). ES2 cells were maintained as monolayer cultures in McCoy's medium 5A supplemented with 10% fetal bovine serum (FBS), and SKOV3 cells were cultured in RPMI-1640 medium supplemented with 10% FBS. Both cell lines were incubated at 37°C in a humidified atmosphere containing 5% CO2. Cells in log phase were harvested by trypsinization, washed with PBS twice and adjusted to 5×10^7/mL in PBS. A volume of 0.1 mL single-cell suspension was subcutaneously injected into the front flank of each female […] nude mouse (~4-6 weeks old, body weight of 18-25 g; Slac Laboratory Animal, Shanghai, China). Animal models were used for PET imaging experiments when xenografts grew to 500-1,000 mm^3. All animal-related studies were approved by the Institutional Animal Care and Use Committee of Soochow University.
(§2) Two groups of female Balb/c nude mice (n=6/group) bearing ES2 tumors were used to conduct static microPET imaging with an Inveon microPET scanner (Siemens Medical Solutions, Erlangen, Germany). The first group was injected with 7.4 MBq ^68Ga-DOTA-c(NGR)2 via tail vein under anesthesia with 1%-2% isoflurane, and a series of static image data, 10 min for each time point, were collected at 30 min, 1, 1.5, and 2 h post injection. For blocking studies, the second group of mice was injected with 100 μg unlabeled peptide in 100 μL saline via tail vein, immediately followed by administration of ^68Ga-DOTA-c(NGR)2, and then images were acquired at 30 min, 1, 1.5 and 2 h post-injection, each for 10 min. The obtained images were processed using Siemens Inveon Research Workplace 4.0 (IRW 4.0) and reconstructed using three-dimensional ordered-subset expectation maximization. Regions of interest (ROIs) were drawn over the tumor (T) and muscle of the contralateral forelimb, and the latter served as the background (B). Moreover, %ID/g of tumors and the T/B ratio were determined. The same studies were repeated in female Balb/c nude mice bearing SKOV3 tumors without the blocking experiments.

in vivo [2] = conditions: female, BALB/c nude, mouse, iv, 7.4 MBq, total radioactivity
Protocol: as §1, §2

[3] = In vitro stability in saline/PBS at room temperature (radiochemical purity); assay type: physicochemical; conditions: ~3.7 MBq tracer in saline (method: PBS), 3 h of incubation, radio-HPLC
in vivo [4] = conditions: ICR, mouse, iv, 3.7 MBq, total radioactivity
ES2 cells = experiment: In vitro cell binding/uptake assay, ES2 cells; assay type: cell-based, human; conditions: 37 KBq per well, 37°C

## N=C(N)NCCC[C@@H]1NC(=O)CNC(=O)[C@H](CC(N)=O)NC(=O)[C@@H](NC(=O)CCOCCOCCOCCOCCNC(=O)CC[C@H](NC(=O)CCOCCOCCOCCOCCNC(=O)CN2CCN(CC(=O)O)CCN(CC(=O)O)CCN(CC(=O)O)CC2)C(=O)NCCOCCOCCOCCOCCC(=O)N[C@H]2CSSC[C@@H](C(=O)N[C@@H](Cc3ccc(O)cc3)C(=O)O)NC(=O)[C@H](CCCNC(=N)N)NC(=O)CNC(=O)[C@H](CC(N)=O)NC2=O)CSSC[C@@H](C(=O)N[C@@H](Cc2ccc(O)cc2)C(=O)O)NC1=O [^68Ga-DOTA-c(NGR)2, metal not drawn] (I: {DOTA-PEG4}-E[PEG4]CNGRCY-OH / II: [PEG4]CNGRCY-OH; amide I:1-II:N; disulfide I:3-I:7, II:2-II:6)
Normal ICR mice; 30 min post-injection versus 5 min
  decrease of kidney uptake from peak: more than 50%
Normal ICR mice; 120 min post-injection versus 5 min
  decrease of kidney uptake from peak: > 85%
SKOV3 cells
  highest binding to SKOV3 cells: 1.79% ± 0.34
[1]; 7.4 MBq
  tissue uptake at 1 h: 0.62 ± 0.09 %ID/g
  tissue uptake at 1.5 h: 0.53 ± 0.08 %ID/g
[1]
  tissue to tissue ratio at 1 h: 10.3 ± 0.26
  tissue to tissue ratio at 1.5 h: 8.04 ± 1.75
[1]; microPET, 100 μg unlabeled peptide i.v. immediately before tracer, 1 h post-injection, n=6, mean ± SD, read-out: uptake in ES2 tumors in the blocking experiment
  tissue uptake at 1 h: 0.16 ± 0.03 %ID/g
[1]; microPET, 100 μg unlabeled peptide i.v. immediately before tracer, 1.5 h post-injection, n=6, mean ± SD, read-out: uptake in ES2 tumors in the blocking experiment
  tissue uptake at 1.5 h: 0.14 ± 0.02 %ID/g
In vivo [2]
  tissue to tissue ratio at 1 h: 3.99 ± 0.18
  tissue to tissue ratio at 1.5 h: 4.24 ± 0.73
  tissue uptake at 1 h: 0.32 ± 0.03 %ID/g
  tissue uptake at 1.5 h: 0.24 ± 0.05 %ID/g
[3]
  radiochemical purity after incubation in saline: > 96%
In vivo [4]; blood
  tissue uptake at 5 min: 7.44 ± 1.64 %ID/g
  tissue uptake at 1 h: 0.31 ± 0.05 %ID/g
In vivo [4]; kidney
  tissue uptake at 5 min: 16.7 ± 5.8 %ID/g
ES2 cells; 1×10^6 cells/well, after 2 h of incubation, gamma counter, mean ± SD
  highest binding to ES2 cells: 3.00% ± 0.59
ES2 cells
  time to almost saturated binding to ES2 cells: ≤ 30 min
